{"source": "patent US20020142009A1", "molecules": {"B1": {"name": "ΔSCPA49 (truncated recombinant SCPA49, Thr63 through His1031) (protein)", "chain": "TKTPQTPDDAEETVADDANDLAPQAPAKTPDTSATSKATIRDLNDPSQVKTLQEKAGKGAGTVVAVIDAGFDKNHEAWRLTDKAKARYQSKEDLEKAKKEHGITYGEWVNDKVAYYHDYSKDGKTAVDQEHGTHVSGILSGNAPSETKEPYRLEGAMPEAQLLLMRVEIVNGLADYARNYAQAIRDAVNLGAKVINMSFGNAALAYANLPDETKKPFVYAKSKGVRIVTTAGNDSSFGGKTRLPLADHPDYGVVGTPAAADSTLTVASYSPDNQLTETAMVKTDDQQDKEMPVLSTNRFEPNKAYDYAYANRGMKEDDFKDVKGKIALIERSDIDFTDKIANAKKAGAVGVLIYDNQDKGFPIELPNVDQMPAAFISRKDGLLLKDNSQKTITFNATPKVLPTASGTKLSRFSSWGLTADGNIKPDIAAPGQDILSSAANNKYAKLSGTSMSAPLVAVIMGLLQKQYETQYPDMTQSERLDLAKKVLMSSATALYDEDEKAYFSPRQQGAGAVDAKKASEATMYVTDKDNTSSKVHLNNVSDKFEVTVTVHNKSDKPHELYYQATVQTDKVDGKHFALAPKALIETSWQKITIPANSSKQVTIPIDISQFSKDLLAQMKNGYFLEGFVRIKQDPTKEELMSIPYIGFRGDFGNLSALEKPLYDSKDGSSYYHEEISDAKDQLDGDGLQFYALKNDFTALTTESNPWTIINVVKEGVENIEDIESSEITETIFAGTFAKQDDDRHYYIHRHANGKPYAAISPNGDGNRDYVQFHGTFLRNAKNLVAEVLDKEGNVVWTSEVTEQVVKNYNNDLASTLGSTRFEISRWDGKDKDAKVVANGTYTYRVRYTPISSGAKEQHTDFDVIVDNTTPEVATSATFSTEDRRLTLASKPQTSQPVYRERIAYTYMDEDLPTTEYISPNEDGTFTLPEEAETMEGATVPLKMSDFTYVVEDMAGNITYTPVTKLLEGH"}, "B2": {"name": "recombinant wild-type SCPA49 (Asn32 through His1139) (protein)", "chain": "NTVTEDTPATEQAVETPQPTTVSEEVPSSKETKTPQTPDDAEETVADDANDLAPQAPAKTPDTSATSKATIRDLNDPSQVKTLQEKAGKGAGTVVAVIDAGFDKNHEAWRLTDKAKARYQSKEDLEKAKKEHGITYGEWVNDKVAYYHDYSKDGKTAVDQEHGTHVSGILSGNAPSETKEPYRLEGAMPEAQLLLMRVEIVNGLADYARNYAQAIRDAVNLGAKVINMSFGNAALAYANLPDETKKPFVYAKSKGVRIVTTAGNDSSFGGKTRLPLADHPDYGVVGTPAAADSTLTVASYSPDNQLTETAMVKTDDQQDKEMPVLSTNRFEPNKAYDYAYANRGMKEDDFKDVKGKIALIERSDIDFTDKIANAKKAGAVGVLIYDNQDKGFPIELPNVDQMPAAFISRKDGLLLKDNSQKTITFNATPKVLPTASGTKLSRFSSWGLTADGNIKPDIAAPGQDILSSAANNKYAKLSGTSMSAPLVAVIMGLLQKQYETQYPDMTQSERLDLAKKVLMSSATALYDEDEKAYFSPRQQGAGAVDAKKASEATMYVTDKDNTSSKVHLNNVSDKFEVTVTVHNKSDKPHELYYQATVQTDKVDGKHFALAPKALIETSWQKITIPANSSKQVTIPIDISQFSKDLLAQMKNGYFLEGFVRIKQDPTKEELMSIPYIGFRGDFGNLSALEKPLYDSKDGSSYYHEEISDAKDQLDGDGLQFYALKNDFTALTTESNPWTIINVVKEGVENIEDIESSEITETIFAGTFAKQDDDRHYYIHRHANGKPYAAISPNGDGNRDYVQFHGTFLRNAKNLVAEVLDKEGNVVWTSEVTEQVVKNYNNDLASTLGSTRFEISRWDGKDKDAKVVANGTYTYRVRYTPISSGAKEQHTDFDVIVDNTTPEVATSATFSTEDRRLTLASKPQTSQPVYRERIAYTYMDEDLPTTEYISPNEDGTFTLPEEAETMEGATVPLKMSDFTYVVEDMAGNITYTPVTKLLEGHSNKPEQDGSDQAPDKKPETKPEQDGSDQAPDKKPETKPGQDGSGQTPDKKPETKPEKDSSGQTPGKTPQKGQPSRTLEKRSSKRALATKASTRDQLPTTNDKDTNRLH"}, "B3": {"name": "SCPA49N295A (protein)", "chain": "B2 chain with N264A"}, "B4": {"name": "SCPA49S512A (protein)", "chain": "B2 chain with S481A"}, "B5": {"name": "SCPA49D130A (protein)", "chain": "B2 chain with D99A"}}, "key": {"[1]": {"target": "rhC5a (human (printed as rhC5a)) (UniProt P01031)", "test": "cell-based or functional assay"}, "rhC5a, P01031": {"target": "T1, rhC5a, P01031", "T1 chain": "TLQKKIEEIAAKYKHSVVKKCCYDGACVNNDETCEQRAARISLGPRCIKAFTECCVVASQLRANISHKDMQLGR"}}, "note": "Where a chain is given by its changes, count along the chain named.", "data": [{"molecule": "SCPA6, streptococcal C5a peptidase of group A Streptococcus serotype M6 strain UAB200, as made by the bacteria (enzyme)", "values": [{"measurement": "Percent inhibition of C5a induced PMN adherence", "setting": "[1]", "value": 58.8, "unit": "%"}]}, {"molecule": "SCPA49, streptococcal C5a peptidase of group A Streptococcus serotype M49 strain CS101, as made by the bacteria (from UniProt P58099 2-1181) (enzyme)", "values": [{"measurement": "Percent inhibition of C5a induced PMN adherence", "setting": "[1]", "value": 54.5, "unit": "%"}]}, {"molecule": "B1", "values": [{"measurement": "peptidase activity, PMN adherence assay", "setting": "rhC5a, P01031", "value": "lacked peptidase activity"}]}, {"molecule": "B2", "values": [{"measurement": "Activity (U/mg*10^-3), PMN adherence assay", "setting": "rhC5a, P01031", "value": 170, "unit": "U/mg·10^-3"}]}, {"molecule": "B3", "values": [{"measurement": "Activity (U/mg*10^-3), PMN adherence assay", "setting": "rhC5a, P01031", "value": "< 20", "unit": "U/mg·10^-3"}]}, {"molecule": "B4", "values": [{"measurement": "Activity (U/mg*10^-3), PMN adherence assay", "setting": "rhC5a, P01031", "value": "< 20", "unit": "U/mg·10^-3"}]}, {"molecule": "B5", "values": [{"measurement": "Activity (U/mg*10^-3), PMN adherence assay", "setting": "rhC5a, P01031", "value": "< 20", "unit": "U/mg·10^-3"}]}]}
